The values below come from publication PMC3711430.

The target of assay [1] is Xenopus FANCI (Xenopus laevis (endogenous in egg extracts)). Put plainly: co-depletion by immunodepletion; DNA-free Xenopus S-phase egg extracts; FANCD2 or FANCI antibody coupled to Sepharose 4B beads, 60 min on ice, one to two rounds; depleted extracts analysed by immunoblot. (In western blotting, separated proteins are transferred to a membrane and probed.)
The target in assay [2] is Xenopus FANCD2 (Xenopus laevis (endogenous in egg extracts)). Described as above.

Consider Xenopus FANCD2 (natural protein), for which, in assay [1], the percent co-depleted stood at 80%.

The substance Xenopus FANCI (natural protein) had a percent co-depleted in assay [2] of 80%.
